Laboratory results published in patent US20120122115A1, “Bacterial quorum sensing biosensor” (priority 2006, published 2012).

Assay: FRET response of LuxP BAI-2 binding site mutant biosensors to BAI-2
Experimental: Site-directed mutations were carried out using the QuikChange mutagenesis kit (Stratagene). The perGFP plasmid containing the gene encoding the green fluorescent protein (GFP) is used for creating cyan and yellow variants CFP and YFP, respectively. An L221K mutation is introduced into the gene encoding CFP or YFP to reduce the possible level of intermolecular dimerization. Cloning vector pSP72 (Promega) is used for creating 5′ to 3′ end-to-end gene fusions of PCR fragments containing the genes encoding CFP (5′ KpnI/3′ EagI), V. harveyi LuxP (70 to 1095 bp; 5′ EagI/3′ NotI), and YFP (5′ NotI/3′ PstI), generating plasmid pSP72-CLPY. The CLPY gene fusion is removed using the restriction enzymes KpnI and PstI and subcloned into a pQE-30 bacterial expression vector (Qiagen) containing an N-terminal six-His tag, generating plasmid pQE30-CLPY. LuxP BAI-2 binding site mutants pQE30-M2CLPY (Q77A and S79A) and pQE30-M3CLPY (Q77A, S79A, and W82F) are created using pQE30-CLPY as a template and confirmed by DNA sequence analysis.
The YFP or CFP fluorescence response of wild-type and mutant forms of CLPY (1.0 mL, 0.015 mg/mL) to different ligands is measured 5 minutes after addition of the ligand to the protein at room temperature. No time-dependent changes in the CLPY FRET ratio are observed after incubation for 5 minutes. […]

B1: M3CLPY: CLPY with LuxP BAI-2 binding site mutations Q77A, S79A, and W82F (protein)
chain: MRGSHHHHHHGSACELGTMKGEELFTGVVPILVELDGDVNGHKFSVSGEGEGDATYGKLTLKFICTTGKLPVPWPTLVTTLTWGVQCFSRYPDHMKQHDFFKSAMPEGYVQQRTIFFKDDGNYKTRAEVKFEGDTLVNRIELKGIDFKEDGNILGHKLEYNYISHNVYITADKQKNGIKANFKIRHNIEDGSVQLADHYQQNTPIGDGPVLLPDNHYLSIQSALSKDPNEKRDHMVLKEFVTAAGITHGMDELYTADGVLNGYWGYQEFLDEFPEQRNLTNALSEAVRAQPVPLSKPTQRPIKISVVYPGQAVADYFVRNIASFEKRLYKLNINYQLNQVFTRPNADIKQQSLSLMEALKSKSDYLIFTLDTTRHRKFVEHVLDSTNTKLILQNITTPVREWDKHQPFLYVGFDHAEGSRELATEFGKFFPKHTYYSVLYFSEGYISDVRGDTFIHQVNRDNNFELQSAYYTKATKQSGYDAAKASLAKHPDVDFIYACSTDVALGAVDALAELGREDIMINGWGGGSAELDAIQKGALDITVMRMNDDTGIAMAEAIKWDLEDKPVPTVYSGDFEIVTKADSPERIEALKKRAFRYSDNGGAAAKGEELFTGVVPILVELDGDVNGHKFSVSGEGEGDATYGKLTLYFICTTGKLPVPWPTLVTTLGYGLKCFARYPDHMKQHDFFKSAMPEGYVQERTIFFKDDGNYKTRAEVKFEGDTLVNRIELKGIDFKEDGNILGHKLEYNYNSHNVYIMADKQKNGIKVNFKIRHNIEDGSVQLADHYQQNTPIGDGPVLLPDNHYLSYQSALSKDPNEKRDHMVLKEFVTAAGITHGMDELYK
Following addition of BAI-2, compared to wild-type CLPY
  FRET response to BAI-2 (qualitative): insensitive to BAI-2
Supersaturating BAI-2 (10 μM)
  FRET response relative to the wild-type biosensor: 18%
